According to patent publication US20050282743A1, “Molecular interactions in cells” (Arbor Vita Corporation, priority 2001, published 2005):
Ends that are not written are not given here. Peptide text beside a SMILES is read from it. * marks the point of attachment. Biotin = O=C1N[C@H]2[C@H](CS[C@H]2CCCCC(=O)*)N1

Molecular target: T1, PDZ protein (GST-PDZ fusion) (Homo sapiens, UniProt Q02410)
T1 construct: made in house; host or cells: E. coli (DH5alpha, BL21 or JM109)
T1 sequence (Q02410 1-837): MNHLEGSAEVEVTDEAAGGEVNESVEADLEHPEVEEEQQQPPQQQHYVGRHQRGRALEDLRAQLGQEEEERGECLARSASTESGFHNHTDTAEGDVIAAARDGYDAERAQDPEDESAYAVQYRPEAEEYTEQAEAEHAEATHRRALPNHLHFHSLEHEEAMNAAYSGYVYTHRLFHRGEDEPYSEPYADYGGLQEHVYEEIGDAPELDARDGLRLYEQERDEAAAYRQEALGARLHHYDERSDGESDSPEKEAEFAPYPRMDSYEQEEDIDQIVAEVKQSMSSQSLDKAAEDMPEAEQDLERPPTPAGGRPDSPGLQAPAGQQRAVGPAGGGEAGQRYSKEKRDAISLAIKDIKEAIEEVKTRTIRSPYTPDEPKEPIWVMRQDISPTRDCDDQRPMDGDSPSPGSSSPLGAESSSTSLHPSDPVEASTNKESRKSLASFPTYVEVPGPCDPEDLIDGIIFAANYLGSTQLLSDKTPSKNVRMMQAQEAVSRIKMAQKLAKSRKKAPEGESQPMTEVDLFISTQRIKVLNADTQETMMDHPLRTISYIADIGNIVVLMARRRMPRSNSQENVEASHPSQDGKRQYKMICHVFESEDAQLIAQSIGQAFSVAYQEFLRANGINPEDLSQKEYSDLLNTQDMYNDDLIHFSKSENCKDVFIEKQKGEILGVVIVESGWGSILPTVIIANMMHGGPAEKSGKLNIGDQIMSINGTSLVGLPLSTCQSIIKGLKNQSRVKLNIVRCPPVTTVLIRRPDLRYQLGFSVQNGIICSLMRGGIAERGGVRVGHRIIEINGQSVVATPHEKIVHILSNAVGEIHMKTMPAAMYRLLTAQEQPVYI
Assay: G' assay (10 uM PL peptide), results of TABLE 7 and TABLE 12
Assay type: binding
Procedure, shortened: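 Biotin-PL peptide (N-term label), 10 uM vs GST-PDZ; protein 5 ug/ml by default. A450 nm binned: 1 = 0-1, 2 = 1-2, 3 = 2-3, 4 = 3-4, 5 = >4 on >2 repeats, 0 = no binding.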

Classification (PDZ Mint 1, PDZ Domain 1, 2) | Classification (PDZ Mint 1, PDZ Domain 2) | Classification (PDZ Mint 1, PDZ Domain 1) | Molecule
1 (A450 nm 0-1) | 1 (A450 nm 0-1) | – | CC(C)C[C@H](NC(=O)[C@H](CC(=O)O)NC(=O)[C@H](CO)NC(=O)[C@H](CCC(=O)O)NC(=O)CNC(=O)[C@H](Cc1ccc(O)cc1)NC(=O)[C@H](CC(C)C)NC(=O)[C@H](C)NC(=O)[C@H](CO)NC(=O)[C@H](CO)NC(=O)[C@H](Cc1ccccc1)NC(=O)[C@H](C)NC(=O)[C@H](C)NC(=O)[C@H](Cc1ccc(O)cc1)NC(=O)[C@H](CC(=O)O)NC(=O)[C@H](CC(C)C)NC(=O)[C@H](C)NC(=O)CNC(=O)[C@@H]1CCCN1C(=O)[C@@H](NC(=O)CCCC[C@@H]1SC[C@@H]2NC(=O)N[C@@H]21)C(C)C)C(=O)O [a-actinin 2] (Biotin-VPGALDYAAFSSALYGESDL-OH; C-terminus assumed)
3 (A450 nm 2-3) | – | – | CC[C@H](C)[C@H](NC(=O)[C@H](Cc1ccc(O)cc1)NC(=O)[C@H](CC(C)C)NC(=O)[C@H](CCC(N)=O)NC(=O)[C@H](Cc1c[nH]cn1)NC(=O)[C@H](CO)NC(=O)[C@H](C)NC(=O)[C@H](CC(C)C)NC(=O)[C@@H](NC(=O)[C@H](CC(=O)O)NC(=O)[C@H](CCSC)NC(=O)[C@H](Cc1ccccc1)NC(=O)[C@@H]1CCCN1C(=O)[C@H](CCCNC(=N)N)NC(=O)[C@@H](NC(=O)[C@H](CC(C)C)NC(=O)[C@H](CC(N)=O)NC(=O)[C@H](CC(=O)O)NC(=O)[C@@H](NC(=O)[C@H](CO)NC(=O)CCCC[C@@H]1SC[C@@H]2NC(=O)N[C@@H]21)[C@@H](C)O)C(C)C)[C@@H](C)O)C(=O)O [presenilin-2] (Biotin-STDNLVRPFMDTLASHQLYI-OH; C-terminus assumed)
– | – | 1 (A450 nm 0-1) | A2AA_HUMAN (modified) (Biotin-HDFRRAFKKILARGDRKRIV; not fully specified)
– | 3 (A450 nm 2-3) | – | A2AC_HUMAN (Modified) (Biotin-DFRPSFKHILFRRARRGFRQ; not fully specified)
1 (A450 nm 0-1) | 2 (A450 nm 1-2) | – | ALVLIAFCIIRRRPSAYQAL (Biotin-ALVLIAFCIIRRRPSAYQAL) [CD68]
1 (A450 nm 0-1) | – | – | CKR5_HUMAN (ERASSVYTRSTGEQEISVGL)
5 (A450 nm of 4 more than 2× repeated) | 5 (A450 nm of 4 more than 2× repeated) | 2 (A450 nm 1-2) | ELLQFCRTPNPALKNGQYWV (Biotin-ELLQFCRTPNPALKNGQYWV)
5 (A450 nm of 4 more than 2× repeated) | 1 (A450 nm 0-1) | 2 (A450 nm 1-2) | KTMPAAMFRLLTGQETPLYI (Biotin-KTMPAAMFRLLTGQETPLYI) [MINT-2]
2 (A450 nm 1-2) | 2 (A450 nm 1-2) | – | KTMPAATYRLLTGQEQPVYL (Biotin-KTMPAATYRLLTGQEQPVYL) [MINT-3]
– | 1 (A450 nm 0-1) | – | PPATPSPRLALPAHHNATRL (Biotin-PPATPSPRLALPAHHNATRL) [Na+/Pi cotransporter 2]
5 (A450 nm of 4 more than 2× repeated) | 3 (A450 nm 2-3) | – | PYSELNYETSHYPASPDSWV (Biotin-PYSELNYETSHYPASPDSWV) [catenin - delta 2]
1 (A450 nm 0-1) | – | – | RNIEEVYVGGKQVVPFSSSV (Biotin-RNIEEVYVGGKQVVPFSSSV) [Nedasin (s-form)]
1 (A450 nm 0-1) | 1 (A450 nm 0-1) | – | TQGFPGPATWRRISSLESEV
– | 2 (A450 nm 1-2) | – | VHDAESSDEDGYDWGPATDL (Biotin-VHDAESSDEDGYDWGPATDL) [zona occludens 3 (ZO-3)]

Molecule | Classification (PDZ Mint 1, PDZ Domain 1, 2) | Classification (PDZ Mint 1, PDZ Domain 2) | Classification (PDZ Mint 1, PDZ Domain 1)
CC[C@H](C)[C@H](NC(=O)[C@H](C)NC(=O)[C@H](CC(C)C)NC(=O)[C@H](Cc1c[nH]c2ccccc12)NC(=O)[C@H](Cc1c[nH]cn1)NC(=O)[C@H](CCC(N)=O)NC(=O)[C@H](CC(C)C)NC(=O)[C@H](CCC(N)=O)NC(=O)[C@H](Cc1ccccc1)NC(=O)[C@H](CCC(N)=O)NC(=O)[C@H](CCCNC(=N)N)NC(=O)[C@@H](NC(=O)[C@H](CC(=O)O)NC(=O)[C@H](CCCNC(=N)N)NC(=O)[C@H](CCC(N)=O)NC(=O)[C@H](C)NC(=O)[C@@H](NC(=O)[C@H](CC(C)C)NC(=O)[C@H](Cc1c[nH]cn1)NC(=O)[C@H](Cc1c[nH]cn1)NC(=O)CCCC[C@@H]1SC[C@@H]2NC(=O)N[C@@H]21)C(C)C)[C@@H](C)CC)C(=O)O [noradrenaline transporter] (Biotin-HHLVAQRDIRQFQLQHWLAI-OH; C-terminus assumed) | 3 (A450 nm 2-3) | – | –
ISGTPTSTMVHGMTSSSSVV (Biotin-ISGTPTSTMVHGMTSSSSVV) [Clasp-2] | 1 (A450 nm 0-1) | – | –
LNETTETQRTLLNGDLQTSI (Biotin-LNETTETQRTLLNGDLQTSI) [SSTR2 (somatostatin recepor 2)] | 1 (A450 nm 0-1) | 1 (A450 nm 0-1) | –
